Data as given in patent US8835609B2, “Antigen binding sites to non-functional oligomeric P2X7 receptors and methods of use thereof” (Biosceptre International Limited, priority 2009, dated 2014).

Tests used:
[1] = system: Colo205 cells; experiment: ApoOne apoptosis assay, caspase 3/7 activity; assay type: cell-based, human; conditions: for Caspase 3/7 activation: COLO205, 3 day time course, antibodies up to 40 ug/mL
Protocol: FIG. 11. Mechanism of Cell Death Induced by 2F6 with Caspase 3/7 Activation Associated with Reactivation of Apoptosis. […] In contrast, the absence of drug or antibody has no effect (cells only column).
A mode of action by which the 2F6 is able to inhibit cell growth was determined by an ApoOne apoptosis assay in which caspase 3/7 activity was measured in combination with cell growth through the Cell Titer Blue assay. Colo205 cells were grown in a 3-day growth assay with increasing 2F6 from 0-40 ug/mL. The gemcitabine positive control was added to establish the degree of apoptosis that may be elicited by the presence of bound antibody.

[2] = system: Lewis Lung (LL) tumour; experiment: Lewis Lung (LL) syngeneic xenograft model, lung metastases; assay type: in vivo, mouse; conditions: 5 mL/kg daily; Day 11
Protocol: Dosing occurred every 3 days at antibody concentrations of 1 or 10 mg/kg i.v. or with PBS for treatment control or Sorafenib at 5 mL/kg daily as a positive control in the Lewis Lung model. Mice were randomised into equal groups of 10 mice, based on tumour volume on Day 0 of the studies.
Mice were anaesthetised for blood collection and euthanised by exsanguination via terminal cardiac bleed 48 hours post-final dose, on Days 11 or 14 post-initial treatment.
The lungs were excised from all mice. Lung surface metastases were counted and were categorised according to size: small (<1 mm), medium (≧1 mm and <3 mm) and large (≧3 mm). Excised lungs were preserved in 10% neutral buffered formalin.
The syngeneic Lewis Lung model was used with additional control groups. Besides the PBS control group of ten mice (Group 1), a positive control group using daily Sorafenib at 5 mL/kg was included (Group 5) along with antibody treatment groups consisting of sheep affinity purified E200-300 polyclonal antibody at 10 mg/kg (Group 2), 2F6-hIgG1 at 1 mg/kg (Group 3) and 2F6-hIgG1 at 10 mg/kg (Group 4).

[3] = target: T1, E200-300 epitope of P2X7 receptor (Homo sapiens, UniProt Q99572, INS205RNILPGGA); experiment: ELISA against immobilised antigen E200-300; assay type: binding
T1 construct: added C-terminal Cys (attachment point for BSA, DT, ovalbumin or KLH via MCS); purchased Chiron Mimotopes; host or cells: solid phase peptide synthesis
T1 sequence (Q99572 with tags, fused parts or gaps isoform Q99572-5 INS205RNILPGGA): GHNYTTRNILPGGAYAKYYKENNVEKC
Protocol: FIG. 18. ELISA of IgM, IgG2a and Fab Leads. Lead Affinity Matured 2F6-Derived Fab ELISA (scale 0.01-12.5 ug/mL for IgM and IgG2a; 0.1-100 ug/mL for Fabs).
The 2F6 VH and VL gene fragments were amplified and assembled into an E. coli expression/secretion vector. Both the 2F6 scFv and Fab were transformed into E. coli and expression of the gene construct induced. The E. coli cultures were harvested 5 hours post induction and the scFv and Fab analysed for binding using ELISA and Biacore against immobilised antigen E200-300.
Mutagenesis of the 2F6 scFv was introduced through a combination of error prone PCR, NNK randomisation and sequence length variation of HCDR3. A mutated library in the phagemid vector was of order 1×10^7. Screening of the library for higher affinity mutants employed a combination of phage display with filter expression assays using biotinylated E200-300 antigen. A selection of higher affinity scFv lead phage clones underwent small scale expression of soluble antibody fragments with affinities measured using ELISA and Biacore.

[4] = target: T2, non-functional receptors on live COLO-205 cells (Homo sapiens, UniProt Q99572); experiment: Flow cytometry binding to live COLO205 cells; assay type: cell-based; conditions: FLAG-tagged Fabs; anti-FLAG secondary
T2 construct: endogenous in cells; host or cells: COLO-205 (human colorectal tumour cells)
T2 sequence (Q99572 1-595): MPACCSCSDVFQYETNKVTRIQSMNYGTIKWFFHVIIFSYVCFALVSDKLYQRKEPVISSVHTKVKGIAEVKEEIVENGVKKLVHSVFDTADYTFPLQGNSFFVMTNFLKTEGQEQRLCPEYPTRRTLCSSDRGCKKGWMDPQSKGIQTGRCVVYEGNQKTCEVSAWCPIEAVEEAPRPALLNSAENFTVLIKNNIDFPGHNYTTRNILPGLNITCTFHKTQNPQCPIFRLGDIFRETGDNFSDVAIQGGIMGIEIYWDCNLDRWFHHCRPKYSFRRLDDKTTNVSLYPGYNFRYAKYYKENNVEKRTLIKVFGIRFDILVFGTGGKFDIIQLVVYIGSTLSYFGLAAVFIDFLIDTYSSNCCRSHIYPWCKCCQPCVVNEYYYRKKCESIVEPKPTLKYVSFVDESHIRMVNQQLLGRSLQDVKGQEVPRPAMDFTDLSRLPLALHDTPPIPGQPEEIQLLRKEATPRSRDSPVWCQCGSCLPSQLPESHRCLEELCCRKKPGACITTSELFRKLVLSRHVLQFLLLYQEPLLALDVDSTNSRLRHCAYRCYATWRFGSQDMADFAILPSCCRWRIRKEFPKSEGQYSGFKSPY
From the text: (§1) FIGS. 19(a)-(b). (a) Flow cytometry results for binding recombinant Fabs to live colorectal COLO205 tumour cells. A Sigma anti-FLAG secondary antibody (#F4049) was used to detect the binding of the primary antibodies. WT 2F6 Fab bound weakly over the same concentration range. The EC50 for the four lead Fabs is very similar to the values obtained from ELISA measurements. (b) Very similar improved binding results were obtained for prostate PC3 cells.
(§2) Flow cytometry was used to measure the enhanced binding of selected affinity matured recombinant Fabs in human COLO-205 and PC3 cell lines over that of the starting 2F6 sequence. Recombinant FLAG-tagged Fabs were bound to cells and detected using a Sigma F4049 murine monoclonal anti-FLAG antibody conjugated to FITC used at a concentration of 1:75. Affinity purified sheep 200-300 antibody was examined for direct comparison with the 2F6 mIgG2a WT by Flow to PC3 cells.

[5] = system: prostate PC3, colon COLO205, breast MDAMB231, melanoma A375 and breast MCF7; experiment: Cell Titer Blue assay of cell growth, range of cancer cell lines; assay type: cell-based; conditions: for cell growth: 3-day or 5-day growth, antibody 0-40 ug/mL
Protocol: (§3) FIGS. 9(a)-(d). (a) In Vitro Cell Inhibition Assays. […] Growth over 5 days is inhibited to a greater extent than over 3 days. The growth data is plotted relative to the control growth curves obtained using the control IgM antibody.
(§4) Cells were seeded at appropriate density and grown over a 3-day or 5-day period to reach a level close to confluence at the end of the test period in the presence of control antibodies and in the presence of test antibodies, either IgM or IgG2a types of 2F6 over the concentration range 0-40 ug/mL. Testing of cell line growth was conducted with seed densities ranging from 100-2000 cells/well.

[6] = system: COLO205; experiment: Cell Titer Blue cell growth assay, COLO205; assay type: cell-based, human
Protocol: as §3, §4

[7] = system: MCF-7 breast cancer cell line; experiment: Cell Titer Blue cell growth inhibition with peptide blocking, MCF-7; assay type: cell-based; conditions: for growth inhibition after pre-incubation of antibody with soluble peptide epitope: 3 days
Protocol: FIG. 10. Blocking Reaction in Cell Killing Assay. The Cell Titer Blue cell growth inhibition assay is used over three day cell growth with MCF-7 breast cancer cell line. Note the viable control cells in the right column have no antibody or peptide. The left hand column is the signal derived from the cells incubated with 10 ug/mL 2F6 IgM antibody containing 500 ug/mL peptide epitope (E200-300 epitope described as 200/300 in Figure), sufficient to block the cell growth inhibition evidenced by the data in the three central columns that show growth inhibition is not affected by the presence of 50 ug/mL, 5 ug/mL or 0 ug/mL peptide respectively.
as §4

[8] = system: MCF-7 cells; experiment: Direct cell killing, confocal microscope images; assay type: cell-based; conditions: 20 ug/mL; 24 hours exposure
Protocol: FIG. 12. Direct Cell Killing by 2F6 IgM. Confocal microscope images of MCF-7 cells in presence of control IgM antibody (a) and 2F6 IgM (b) for 24 h.

[9] = target: T3, non-functional receptors on live PC3 cells (Homo sapiens, UniProt Q99572); experiment: Flow cytometry binding to PC3 cells; assay type: cell-based
T3 construct: endogenous in cells; host or cells: PC3 (human prostate tumour cells)
T3 sequence (Q99572 1-595): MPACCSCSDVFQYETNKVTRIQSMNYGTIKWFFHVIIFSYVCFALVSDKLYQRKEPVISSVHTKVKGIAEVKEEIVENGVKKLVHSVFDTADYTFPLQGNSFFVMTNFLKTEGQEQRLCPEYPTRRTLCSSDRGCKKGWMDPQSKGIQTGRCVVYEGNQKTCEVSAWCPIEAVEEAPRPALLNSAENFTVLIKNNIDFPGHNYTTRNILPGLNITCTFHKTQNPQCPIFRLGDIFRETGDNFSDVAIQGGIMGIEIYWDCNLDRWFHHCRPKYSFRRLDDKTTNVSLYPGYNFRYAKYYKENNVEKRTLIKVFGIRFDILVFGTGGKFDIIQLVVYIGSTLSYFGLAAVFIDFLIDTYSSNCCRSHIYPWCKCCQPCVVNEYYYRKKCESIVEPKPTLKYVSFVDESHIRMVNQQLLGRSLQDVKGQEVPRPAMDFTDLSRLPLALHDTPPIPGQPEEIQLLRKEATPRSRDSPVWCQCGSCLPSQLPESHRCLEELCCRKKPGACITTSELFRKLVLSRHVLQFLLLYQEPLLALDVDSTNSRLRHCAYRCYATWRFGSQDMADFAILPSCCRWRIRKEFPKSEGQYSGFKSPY
From the text: as §1
FIG. 20. A comparison was made with various preparations of recombinant 2F6 IgG2a to determine the relative binding strength of the WT formatted antibody to PC3 cells compared with the affinity matured Fabs. Rockland IgG2a #010-001-332 was used for control to determine background (diamond).
as §2

Nc1ccn([C@@H]2O[C@H](CO)[C@@H](O)C2(F)F)c(=O)n1 [Gemcitibine, gemcitabine, reference compound] was tested, and the “Caspase 3/7 activation” value [1] was “activate caspases”.

In the case of CNC(=O)c1cc(Oc2ccc(NC(=O)Nc3ccc(Cl)c(C(F)(F)F)c3)cc2)ccn1 [Sorafenib, reference compound], the “Mean Lung Surface Mets” value [2] is reported as 0.1 and the “inhibition of lung metastases relative to PBS control” value [2] is reported as 96%.

B1: WT Fab: recombinant Fab of wildtype 2F6 expressed in E. coli (antibody, V domains shown)
VH: DVKLVESGGGLVKLGGSLKLSCAASGFTFSSYYMSWVRQTPEKRLELVAAINSNGGSTYYPDTVKGRFTISRDNAKNTLYLQMSSLKSEDTAFYYCTRHYSSRFFDVWGAGTTVTVSS
VL: MADIVMTQSQKFMSTSVGDRVSVTCKASQNVGTNVAWYQQKPGQSPKALIYSASFRYSGVPDRFTGSGSGTDFTLTISNVQSEDLAEFFCQQYNSYPFTFGSGTRLEIK
B1 was tested, and the “binding compared with selected affinity matured leads” value ([3]; ELISA, Fab format) was “much lower (2-logs) binding”, the “EC50 (ELISA)” value ([3]; scale 0.01-12.5 ug/mL for IgM and IgG2a, 0.1-100 ug/mL for Fabs) was “very low EC50” and the “binding to live COLO205 cells” value [4] was “bound weakly”.

B2: 2F6 IgM: hybridoma clone 2F6, mouse IgM with Kappa light chains, raised to P2X7 E200-300; CDR3 HYSSRFFDV (antibody, V domains shown)
VH: DVKLVESGGGLVKLGGSLKLSCAASGFTFSSYYMSWVRQTPEKRLELVAAINSNGGSTYYPDTVKGRFTISRDNAKNTLYLQMSSLKSEDTAFYYCTRHYSSRFFDVWGAGTTVTVSS
VL: MADIVMTQSQKFMSTSVGDRVSVTCKASQNVGTNVAWYQQKPGQSPKALIYSASFRYSGVPDRFTGSGSGTDFTLTISNVQSEDLAEFFCQQYNSYPFTFGSGTRLEIK
modifications: IgM constant regions
notes: hybridoma clone 2F6, mouse IgM with Kappa light chains, raised to P2X7 E200-300; CDR3 …
In the case of B2, the cell growth [5] is reported as “inhibited cell growth”, the COLO205 growth ([6]; over 3 days, relative to control IgM) is reported as “significantly inhibited” and the COLO205 cells ([6]; over 5 days, even at low dose of 2.5 ug/mL) is reported as “eliminated”. The “growth inhibition after pre-incubation of antibody with soluble peptide epitope” value ([7]; 10 ug/mL antibody, E200-300 peptide 500 ug/mL) was “no longer able to affect cell growth”, the “growth inhibition after pre-incubation of antibody with soluble peptide epitope” value ([7]; 10 ug/mL antibody, E200-300 peptide 5-50 ug/mL) was “no effect on the inhibition” and the MCF7 cell growth ([7]; 10 ug/mL antibody, over 3 days) was “greatly inhibits cell growth”. The MCF-7 cell growth ([7]; after 5 days of exposure) was “Total inhibition of cell growth”, the “Caspase 3/7 activation” value [1] was “steady increase” and the “antibody concentration sufficient to initiate full caspase 3/7 (apoptosis) activity” value ([1]; Colo205, 3-day growth assay) was 20 to 40 µg/mL. For the same molecule, the “cell death (confocal images)” value [8] was “many cells are already dead”.

B3: 2F6 IgG2a: 2F6 VH and VL chains spliced into a mouse IgG2a sequence, expressed in HEK293 cells (antibody, V domains shown)
VH: DVKLVESGGGLVKLGGSLKLSCAASGFTFSSYYMSWVRQTPEKRLELVAAINSNGGSTYYPDTVKGRFTISRDNAKNTLYLQMSSLKSEDTAFYYCTRHYSSRFFDVWGAGTTVTVSS
VL: MADIVMTQSQKFMSTSVGDRVSVTCKASQNVGTNVAWYQQKPGQSPKALIYSASFRYSGVPDRFTGSGSGTDFTLTISNVQSEDLAEFFCQQYNSYPFTFGSGTRLEIK
For B3, the cell growth [5] was “inhibited cell growth”, the “cell growth inhibition compared with the IgM form” value ([5]; over 3 days) was “weaker cell inhibition” and the “binding to PC3 cells” value [9] was “comparable to the binding elicited by the lead Fabs”.
